Measured values published in US20240325557A1, “TREATMENT OF CANCER” (INNATE PHARMA, priority 2020, published 2024).

Key:
[1] = molecular target: HER2 on SUM185 and SUM190 human breast cancer tumor cells (human) (UniProt P04626); assay: flow cytometry on SUM190 cells, antibody at 10 µg/ml
[2] = molecular target: HER2 on SUM185 and SUM190 human breast cancer tumor cells (human) (UniProt P04626); assay: flow cytometry on SUM185 cells, antibody at 10 µg/ml

Anti-Her2 antibody trastuzumab modified as human IgG1 isotype containing a N297Q mutation
MFI (median fluorescence units) [1]: 1780
MFI (median fluorescence units) [2]: 2880
